Measured values: patent publication US9803012B2, “Compositions and methods for regulating SAS1R” (UNIVERSITY OF VIRGINIA PATENT FOUNDATION, priority 2005, dated 2017)

Experiments:
Metaphase II eggs = experiment: Egg labeling by indirect immunofluorescence; format: cell-based, mouse; conditions: 100 μg/ml protein, 45 min
Description: Metaphase II eggs were obtained as previously described (Coonrod et al, 1999) and incubated with 5% NGS/media for 30 min. Oocytes were washed five times in TYH medium and incubated with 100 μg/ml recmSLLP1 or 100 μg/ml lysozymes for 45 min at 37° C. and 5% CO2. Oocytes were washed five times and incubated with guinea pig anti-recmSLLP1 polyclonal antibody (1:50), sheep anti-human lysozyme (1:25) or rabbit anti-chicken lysozyme (1:400) in 5% NGS/media for 1 h at 37° C. and 5% CO2. Oocytes were washed five times and incubated with donkey anti-guinea pig/Texas Red antibody (1:200) or goat anti-guinea pig/FITC antisera 1:200), donkey anti-sheep and goat anti-rabbit FITC-labeled secondary antibody (1:200) (Jackson ImmunoResearch), respectively in 5% NGS/media for 1 h at […] 37° C. and 5% CO2. Oocytes were washed and mounted in media onto glass slides and visualized under a Zeiss Standard 18 ultraviolet microscope. Images were captured by using MrGrab 1.0 (Carl Zeiss Vision GmbH, Germany).

mouse sperm-egg fusion = conditions: cited from earlier work
oolemma = conditions: sea urchin; cited from earlier work
mouse eggs = experiment: Binding of SLLP2 to mouse eggs; format: cell-based; conditions: human SLLP2
Description: To analyze the biologic activity of human SLLP2, it was determined whether it would bind to an egg, in this case, a mouse egg.
For comparison to the use of human sperm SLLP2, an experiment was performed to determine if purified mouse SLLP2 would bind to Zona intact mouse eggs. […] Competitive assays were then performed to determine whether the addition of recombinant mouse SLLP2 to a mixture of mouse sperm and mouse eggs could inhibit binding of sperm and eggs. Various amounts of recombinant mouse SLLP2 were added (5, 25, 50, 100, and 200 μg/ml) and the number of sperm bound per egg was determined.

cumulus intact oocytes = experiment: Mouse in vitro fertilization, capacitated sperm pre-incubated with rSAS1R; format: cell-based
Description: Epididymal sperm from sexually mature and oocytes from 6 to 8 weeks old ICR mice were used for gamete studies and IVF. Capacitated sperm in presence or absence of rSAS1R were used to inseminate cumulus intact oocytes and fertilization was scored by counting two cell embryos.
ICR mice were used in all experiments. Suspensions of epididymal spermatozoa from sexually mature male mice were prepared for insemination of isolated oocytes. Oocytes were obtained from 6 to 8 weeks old females superovulated with 10 IU PMSG and 10 IU hCG, injected intraperitoneally at 48 h intervals. Females were killed 16 h after hCG injection, and both oviducts were immediately removed, placed in mineral oil, and flushed to recover oocytes.
In vitro fertilization was conducted with cumulus intact oocytes using sperm dispersed from cauda epididymides. Sperm were placed for 5 min in 200 μl drops of fertilization medium under paraffin oil. […] The eggs were then placed in 5 μl of fertilization medium between a microscope slide and an elevated coverslip, and visualized at 160× using light and fluorescence microscopy (Zeiss Axioplan). Two-cell embryos were scored as fertilized, while one-celled oocytes were scored as unfertilized.

capacitated sperm = experiment: Co-localization of rSAS1R binding sites and SLLP1 on sperm; format: cell-based, mouse; conditions: capacitated sperm incubated with rSAS1R, probed with both antibodies
Description: Zona intact-, zona free oocytes, early embryos and sperm were collected as before (10), blocked and probed with 1st and 2nd antibody and imaged with UV-microscopy. For co-LC studies, gametes were incubated with soluble rSAS1R or rSLLP1, washed, probed with 1st- and 2nd antibodies and imaged with UV-microscopy.
Similarly capacitated mouse sperm were also examined for co-localization of SAS1R binding sites and SLLP1 localization. Sperms were incubated with increasing concentrations (0-100 μg/ml) of rSAS1R for 1 h, then sperm were washed two times at 700 g for 8 min and droplets were made on glass slide. These droplets were air-dried for 30 min and rehydrated again with 20 μl of PBS for 5 min. Now in the droplets, sperm were fixed with 20 μl of 4% paraformaldehyde for 25 min and then washed with 20 μl of PBS thrice for 5 min each. Now the droplets were blocked with 10% NGS for 30 min and incubated with guinea pig anti-rSAS1R polyclonal antibody (1:200) and rat anti-rSLLP1 polyclonal antibody (1:200) simultaneously, in 0.1% NGS/media for 1 h at 37° C. and 5% CO2. All the droplets were washed three times and incubated with goat anti-guinea pig/Cy3 red antibody (1:200, Jackson ImmunoResearch, PA) and goat anti-rat/FITC green antibody (1:200, Jackson ImmunoResearch, PA), in 0.1% NGS/media for 1 h at 37° C. and 5% CO2. Sperms were washed and mounted in media on glass slides. […]

[1] = molecular target: T1, fluorescent tagged synthetic peptide (Mus musculus, UniProt Q6HA09); experiment: Protease activity assay of SAS1R (EnzChek Peptidase/Protease Assay Kit, FRET); format: biochemical
T1 construct: The mature rSAS1R (414 residues); 20 vector-encoded residues including His6 (pET-28b) (N); made in house; host or cells: E. coli BL21DE3
T1 sequence (Q6HA09 22-435): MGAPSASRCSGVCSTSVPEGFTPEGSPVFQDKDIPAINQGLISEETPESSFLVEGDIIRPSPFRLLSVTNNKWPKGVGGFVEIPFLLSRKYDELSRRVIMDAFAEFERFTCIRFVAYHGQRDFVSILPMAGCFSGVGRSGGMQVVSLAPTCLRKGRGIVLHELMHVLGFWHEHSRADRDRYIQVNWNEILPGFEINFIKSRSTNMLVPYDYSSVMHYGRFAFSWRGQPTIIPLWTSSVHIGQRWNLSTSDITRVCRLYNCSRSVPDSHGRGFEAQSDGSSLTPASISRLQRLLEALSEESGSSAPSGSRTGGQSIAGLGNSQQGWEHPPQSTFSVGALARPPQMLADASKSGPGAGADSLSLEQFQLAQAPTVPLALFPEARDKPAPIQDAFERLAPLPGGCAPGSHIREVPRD
Description: Protease activity was assayed with purified soluble rSAS1R using the EnzChek® Peptidase/Protease Assay Kit.
Protease activity was assayed in serial dilutions (0-2000 ng) of purified bacterial recombinant SAS1R using the EnzChek® Peptidase/Protease Assay Kit (Molecular Probes, OR), which provides a FRET (fluorescence resonance energy transfer)-based method for quantitation of a wide range of protease activities. This assay was performed in 100 μl size reactions and repeated three times with varying concentrations of recombinant SAS1R. Fluorescence was measured over 24 h following the manufacturer's protocol. Protease activity of recombinant SAS1R appeared within 1 h and increased within 24 h. SLLP1 was used as a negative control. The assay method was validated using purified trypsin as a positive control (Sigma, MO).

zona-free mouse eggs = experiment: In vitro fertilization with zona-free eggs (sperm-oolemma binding and fusion); format: cell-based; conditions: 25 μg of human SLLP1
Description: For the sperm-oolemma binding assay, two cauda epididymides were placed in 900 μl drops of fertilization medium under paraffin oil for the dense mass of spermatozoa to flow freely for ˜15 min and then diluted at 1×10^6/ml for 3 h of capacitation. Cumulus oocyte complexes were placed in 200 μl drops of TYH medium under paraffin oil. Cumulus cells were removed by treating the oocytes for 3 min with 1 mg/ml hyaluronidase in TYH medium and then washed 8 times in 50 μl drops. Zona pellucidae were loosened by treating the oocytes with 10 μg/ml chymotrypsin in TYH media for 1 min and loosened zonae were removed by mechanical agitation using a pulled Pasteur pipette. The oocytes were then washed 10 times and allowed to recover from chymotrypsin treatment by incubating in TYH media for 3 h, following which, they were stained with 10 μg/ml Hoechst dye for 10 min, and then gently washed. […]
To compare the effects of recmSLLP1 with human and chicken c lysozymes, spermatozoa were first incubated under standard capacitating conditions. Oocytes were pre-incubated for 45 min before insemination with recmSLLP1 (0.1 to 200 μg/ml) or with hSLLP1 (25 μg/ml) or with chicken or human lysozyme (50 μg/ml, 100 μg/ml). Untreated capacitated sperm were then added to the incubation drops containing the treated eggs with a final sperm concentration of 2.5×10^4/ml. Thus, in all the experiments performed the sera, the recombinant protein, or the lysozyme was present in the incubation droplet during gamete interaction. After 30 min of gamete co-incubation, oocytes were gently washed 5 times in TYH medium and placed between a microscope slide and an elevated coverslip and visualized at 160×. Binding to the oocyte was scored by counting the number of bound spermatozoa per oocyte using phase contrast. Fusion with the egg was scored by counting the number of decondensed sperm heads within each oocyte using fluorescence microscopy.

human lysozyme: conventional human c lysozyme used as comparator
fluorescence of mouse oocytes after incubation with protein and respective antibody (Metaphase II eggs): did not show any fluorescence

chicken lysozyme: conventional chicken c lysozyme used as comparator
fluorescence of mouse oocytes after incubation with protein and respective antibody (Metaphase II eggs): did not show any fluorescence

c1cnc2c(c1)ccc1cccnc12 [1,10-phenanthroline]
sperm-egg binding (mouse sperm-egg fusion): without reducing sperm-egg binding | sperm-egg fusion (mouse sperm-egg fusion): inhibited mouse sperm-egg fusion | binding of acrosome reacted sperm to the oolemma (oolemma): no effect | block of membrane fusion (oolemma): 95%

B1: human SLLP2: recombinant human SLLP2 expressed in E. coli (SEQ ID NO:18) (protein, listed as Homo sapiens)
chain: MKAWGTVVVTLATLMVVTVDAKIYERCELAARLERAGLNGYKGYGVGDWLCMAHYESGFDTAFVDHNPDGSSEYGIFQLNSAWWCDNGITPTKNLCHMDCHDLLNRHILDDIRCAKQIVSSQNGLSAWTSWRLHCSGHDLSEWLKGCDMHVKIDPKIHP
binding to mouse eggs (cross-species) (mouse eggs): can indeed bind with mouse eggs

B2: rSAS1R: mature recombinant mouse SAS1R (414 residues; SEQ ID NO:6) expressed in E. coli with histidine tag, affinity purified (protein, listed as Mus musculus)
chain: T1 sequence (Q6HA09 22-435)
modifications: His tag
reduction in fertilization (cumulus intact oocytes; 10 μg/ml rSAS1R): not statistically significant | reduction in fertilization (cumulus intact oocytes; 25 μg/ml rSAS1R, P≦0.03, two cell embryos scored): 89% | binding to sperm (capacitated sperm): binds to acrosome of sperm and co-localizes with native SLLP1 | proteolytic activity ([1]; 200-2000 ng rSAS1R in 100 μl assay, FRET, up to 24 h): dose dependent proteolytic activity | time until protease activity appeared ([1]; fluorescence measured over 24 h): ≤ 1 h

B3: human SLLP1: human sperm lysozyme-like protein 1 (SEQ ID NO:14) (protein, listed as Homo sapiens)
chain: MVSALRGAPLIRVHSSPVSSPSVSGPRRLVSCLSSQSSALSQSGGGSTSAAGIEARSRALRRRWCPAGIMLLALVCLLSCLLPSSEAKLYGRCELARVLHDFGLDGYRGYSLADWVCLAYFTSGFNAAALDYEADGSTNNGIFQINSRRWCSNLTPNVPNVCRMYCSDLLNPNLKDTVICAMKITQEPQGLGYWEAWRHHCQGKDLTEWVDGCDF
sperm-egg binding and fusion (zona-free mouse eggs): maximally inhibited
